Test results as given in the supplement of paper PMC10126150.
± gives the standard deviation of the averaged measurements.

The sequences below were run on ATP (assay: switch fluorescence ratio, 500 uM ATP over buffer (Cy3 cluster intensity, sum of 5 cycles each) (fold (ratio)); higher = stronger signal-on switching upon ATP binding; sequences stand for … in TCGTCGGCAGCGTCAGATGTGTATAAGAGACAGTTTTTTTTTTTTTTTTTTTTTTTTT…TC). Conditions: aptamer strand: ATP DNA aptamer (quencher-CACCTGGGGGAGTATTGCGGAGGAAGG + anchor), 100 nM annealed; ATP concentration: 500 uM.
In short: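 Cy3-labelled switching-strand clusters on a modified Illumina MiSeq flow-cell were annealed to 100 nM quencher-labelled ATP aptamer, imaged in selection buffer, then imaged after 15 min with 500 uM ATP at 22 °C. Five buffer/ATP cycles ran, with NaOH stripping and re-annealing between them. The fluorescence ratio is summed target-cycle over summed buffer-cycle Cy3 intensity per cluster, averaged per switch-domain sequence. Clusters outside 100-1000 RFU were excluded.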
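Further: ATP exposure 15 min at 22 °C before imaging.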

In order of rising switch fluorescence ratio:
1. CACGTGTGTG  0.961 ± 0.029
2. CAGAATTGGG  0.967 ± 0.028
3. CAGAAAGAGC  0.969 ± 0.0086
4. CAGAGGTGCG  0.969 ± 0.056
5. CACTTCTTAT  0.973 ± 0.021
6. CACGGGGCGC  0.977 ± 0.046
7. CAGCTTGATA  0.979 ± 0.018
8. CAGAGGAGGT  0.982 ± 0.017
9. CAGATTTTTT  0.982 ± 0.028
10. CACAGTGAAG  0.985 ± 0.051
11. CACCGAGTTT  0.987 ± 0.02
12. CACGGGGGTG  0.987 ± 0.03
13. CACTTCTGAA  0.987 ± 0.017
14. CACTTTGGAT  0.9914 ± 0.0032
15. CAGACGTTTT  0.9917 ± 0.0094
16. CAGATGATAT  0.992 ± 0.047
17. CAGATTAAGT  0.992 ± 0.03
18. CAGAGGGGGG  0.994 ± 0.019
19. CACGATTTGG  0.995 ± 0.014
20. CACGCGTGGT  0.996 ± 0.019
21. CAGAAAGATA  0.997 ± 0.018
22. CAGAGGGGTC  0.999 ± 0.022
23. CAGCGCGGGA  0.999 ± 0.014
24. CACGGGGGTT  1 ± 0.018
25. CACTAGGCTT  1 ± 0.045
26. CACTAGTGGG  1 ± 0.0024
27. CACTTGGAAG  1 ± 0.028
28. CAGCTCTGGG  1 ± 0.022
29. CACAGTGTCA  1.01 ± 0.027
30. CACCATTAAT  1.01 ± 0.017
31. CACCGGTTGG  1.014 ± 0.0044
32. CACGTTTGGG  1.01 ± 0.027
33. CAGACTGGTT  1.011 ± 0.0067
34. CAGAGTAAGC  1.01 ± 0.021
35. CAGCGAGGAA  1.014 ± 0.0091
36. CAGCGCCGTT  1.006 ± 0.004
37. CAGCGTATCA  1.01 ± 0.0018
38. CAGCTAGTGG  1.011 ± 0.0011
39. CACATGTAGC  1.02 ± 0.041
40. CACCGGAAGG  1.02 ± 0.024
41. CACCTTTATT  1.018 ± 0.0096
42. CACGTGATTG  1.02 ± 0.02
43. CAGACTCGGT  1.02 ± 0.024
44. CAGAGGATAG  1.017 ± 0.0088
45. CAGAGGATAT  1.021 ± 0.01
46. CAGATAGTGT  1.018 ± 0.002
47. CAGCGGAGGT  1.025 ± 0.0052
48. CAGCGGTGGG  1.02 ± 0.029
49. CACCATAGTG  1.03 ± 0.02
50. CACGAGAAGG  1.03 ± 0.018
51. CACTAATGAG  1.0254 ± 0.00028
52. CACTAGTAGA  1.03 ± 0.028
53. CAGAAGGATA  1.03 ± 0.013
54. CAGAGGGCTA  1.03 ± 0.038
55. CAGATAAAAA  1.03 ± 0.02
56. CAGCATGGGG  1.03 ± 0.017
57. CAGCCGTTTC  1.03 ± 0.033
58. CACGGGGTCG  1.036 ± 0.0027
59. CACGTGTTGC  1.04 ± 0.03
60. CACTACGGCC  1.04 ± 0.043
61. CACTAGAAGC  1.037 ± 0.0012
62. CACTGATGCC  1.04 ± 0.019
63. CAGAGGGGCG  1.04 ± 0.043
64. CAGATAATAT  1.04 ± 0.022
65. CAGATAGGCT  1.04 ± 0.019
66. CAGCCTTGGT  1.04 ± 0.11
67. CACGGAGGAG  1.05 ± 0.055
68. CACTATGGTG  1.05 ± 0.066
69. CAGACCCCAT  1.06 ± 0.035
70. CACGTATCGG  1.07 ± 0.029
71. CACTGAGCTG  1.07 ± 0.077
72. CACTACGACT  1.084 ± 0.0034
73. CACACAGTCG  1.09 ± 0.015
74. CACCGGAAAA  1.09 ± 0.094
75. CAGAGAAAC  1.1 ± 0.12
76. CAGCAGGGAG  1.1 ± 0.096
77. CAGCCAAATA  1.1 ± 0.029
78. CAGCTGTCGG  1.1 ± 0.12
79. CACAGGGGAC  1.11 ± 0.05
80. CACGCGAGGA  1.12 ± 0.12
81. CACGCATCAG  1.137 ± 0.011
82. CAGGAACCGA  1.14 ± 0.017
83. CACTAACCCT  1.148 ± 0.0044
84. CACTCCCGGA  1.15 ± 0.16
85. CACTCATACT  1.16 ± 0.029
86. CACCCGGCGC  1.17 ± 0.13
87. CACACAAATT  1.18 ± 0.15
88. CACGGATTGC  1.18 ± 0.039
89. CACTGTAACG  1.194 ± 0.0063
90. CACCCGGGGT  1.2099 ± 0.00019
91. CACTTGACGT  1.21 ± 0.034
92. CACCCTACTA  1.29 ± 0.018
93. CACGGGGTAC  1.34 ± 0.016
94. CACTTCCTTT  1.39 ± 0.51
95. CAGAGTAATA  1.45 ± 0.1
96. CACGTACTCC  1.5 ± 0.097
97. CACCGGGAAC  1.56 ± 0.037
98. CAGCCGCTGT  1.79 ± 0.026
99. CACAGGTGCG  2.23 ± 0.08
100. CACAGGGGGA  2.67 ± 1.3
